Experimental data from US20240368565A1 (PROMEGA, published 2024).

Key:
[1] = biological target: Aga2-15xGly/Ser-EGFP-4xGly/Ser-HaloTag[3-19]-4xGly/Ser-…; assay: flow cytometry of yeast displaying the tag; reporter bound, washed, then JF549 HaloTag ligand
[2] = biological target: Aga2-15xGly/Ser-EGFP-4xGly/Ser-HaloTag[3-19]-4xGly/Ser-VS-HiBiT; assay: as above
[3] = biological target: Aga2-15xGly/Ser-4xGly/Ser-HaloTag[3-19]-4xGly/Ser-VS-HiBiT; assay: as above
[4] = biological target: Aga2-15xGly/Ser-EGFP-4xGly/Ser-HaloTag[3-19]-4xGly/Ser-…; assay: as above; remark: listed apart in the source
[5] = biological target: Aga2-15xGly/Ser-EGFP-4xGly/Ser-HaloTag[3-19]-4xGly/Ser-…; assay: as above; remark: listed apart in the source
[6] = biological target: T1, Biotin-HaloTag[3-19] (I2R)-4xGly/Ser-VS-HiBiT (N-terminal biotin); assay: BLI; biotin-peptide on streptavidin probe; PBST, 25 C
T1 construct: Synthetic peptide; also called HaloTag[3-19](12R)-4×Gly/Ser-VS-HiBiT; DualTag peptide
T1 peptide: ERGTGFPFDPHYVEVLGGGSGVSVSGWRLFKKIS

B1: HaloTag[22-297](M2F)-12xGly/Ser-LgBiT-3xGly/Ser-6xHis (other)
chain: MFHYVDVGPRDGTPVLFLHGNPTSSYVWRNIIPHVAPTHRCIAPDLIGMGKSDKPDLGYFFDDHVRFMDAFIEALGLEEVVLVIHDWGSALGFHWAKRNPERVKGIAFMEFIRPIPTWDEWPEFARETFQAFRTTDVGRKLIIDQNVFIEGTLPMGVVRPLTEVEMDHYREPFLNPVDREPLWRFPNELPIAGEPANIVALVEEYMDWLHQSPVPKLLFWGTPGVLIPPAEAARLAKSLPNCKAVDIGPGLNLLQEDNPDLIGSEIARWLSTLEISGGSGGSGGGGSGGMVFTLEDFVGDWEQTAAYNLDQVLEQGGVSSLLQNLAVSVTPIQRIVRSGENALKIDIHVIIPYEGLSADQMAQIEEVFKVVYPVDDHHFKVILPYGTLVIDGVTPNMLNYFGRPYEGIAVFDGKKITVTGTLWNGNKIIDERLITPDGSMLFRVTINSGSGHHHHHH
notes: Purified tandem polypeptide reporter (large split-HaloTag fragment fused to LgBiT); also called Reporter
[1]
  percent of cells in the JF549+ gate: 6.96%
[2]
  percent of cells in the JF549+ gate: 46.4%
[3]
  percent of cells in the JF549+ gate: 48.9%
[4]
  percent of cells in the JF549+ gate: 44.2%
[5]
  percent of cells in the JF549+ gate: 44.8%
[6]
  Kd: 1.61 nM
  koff: 8.34e-05 s⁻¹
  kon: 51900 M⁻¹ s⁻¹
